The source of these data is US20080207488A1, “Method for Detecting Peptides Comprising a Cross-B Structure” (priority 2005, published 2008).

The target in data set [1] is T1, tPA (Homo sapiens, UniProt P00750).
T1 construct: purchased Boehringer-Ingelheim (Actilyse, Alteplase)
In words: tPA/plasminogen activation assay (400 pM tPA). It is filed as biochemical. The conditions noted are these: % of standardized positive control (denatured γ-globulins 100 μg/ml); 1:10 diluted samples. The method, then:
β2-GPI was reduced and alkylated as follows. Six hundred forty μl of β2-GPI stock was mixed with 640 μl of 8 M Urea (cooled solution) in 0.1 M Tris pH=8.2. The solution was degassed with N2 gas for approximately 6 minutes. From a 1 M DTT stock 12.8 μl was added to the solution, mixed and incubated for 3 hours at room temperature. A 1 M Iodoacetamide (Sigma; 1-6125) was prepared, of which 25.6 μl was added to the β2-GPI reaction mixture. The solution was subsequently dialysed against PBS. […] Signals obtained with alkyl-62gpi are compared with those obtained with native β2gpi starting material.
Exiqon Peptide Immobilizer plates were blocked for 1 hour with PBS, 1% Tween20 and rinsed twice with distilled water. The conversion of the chromogenic substrate S-2251 (Chromogenix, Italy) by plasmin was kinetically measured at 37° C. on a Spectramax340 microplate reader at a wavelength of 405 nm. […] Denatured γ-globulins (100 μg/ml) with amyloid-like structure was used as reference and positive control. Lyophilized γ-globulins (Sigma, MO, USA) were dissolved in a 1(:)1 volume ratio of 1,1,1,3,3,3-hexafluoro-2-propanol and trifluoro-acetic acid and subsequently dried under air. Dried γ-globulins was dissolved in H2O to a final concentration of 1 mg/ml and kept at room temperature for at least three days and subsequently stored at −20° C.
(§1) Protein therapeutics were obtained from the local hospital pharmacy and analyzed within the expiry limits as stated by the manufacturers.

A short description of data set [2]: Thioflavin T fluorescence. The conditions noted are these: for Fluorescence (a.u. +/− SD) ThT: marketed biopharmaceutical within expiry limits, five μL tested. It is filed as physicochemical. The method, then: Fluorescence of ThT-protein/peptide adducts was measured as follows. […] Fluorescence was measured at 485 nm upon excitation at 435 nm. Background signals from buffer, buffer with ThT and protein/peptide solution without ThT were subtracted from corresponding measurements with protein solution incubated with ThT. […] Fluorescence was measured in triplicate on a Hitachi F-4500 fluorescence spectrophotometer (Ltd., Tokyo, Japan).
(§2) Formulated protein therapeutics were obtained from the local hospital pharmacy and were used as supplied by the manufacturers. […] Lyophilized therapeutics were dissolved according to the manufacturers recommendations. […] Other protein therapeutics were only kept at 4° C., and assayed for the presence of cross-β structure conformation at shown time points. Enhancement in fluorescence of ThT and Congo red was measured with all formulated protein therapeutics. For this purpose, proteins were diluted to the indicated concentrations. […] Zinc-insulin was diluted tenfold in the activation assay, GH was diluted to a final concentration of 500 μg ml^−1. Activation of factor XII and prekallikrein by the therapeutics was tested in the chromogenic factor XII assay (see above). […] After coating, plates were blocked with Blocking Reagent (Roche Diagnostics, Almere, The Netherlands).
To prepare structurally altered ovalbumin (OVA) with amyloid cross-β structure conformation, purified OVA (Sigma, A-7641, lot 071k7094) was heated to 85° C. One mg ml^−1 OVA in 67 mM NaPi buffer pH 7.0, 100 mM NaCl, was heated for two cycles in PCR cups in a PTC-200 thermal cycler (MJ Research, Inc., Waltham, Mass., USA). In each cycle, OVA was heated from 30 to 85° C. at a rate of 5° C./min. Native OVA (nOVA) and heat-denatured OVA (dOVA) were tested in the ThT fluorescence assay and in the Plg-activation assay. In the fluorescence assay and in the Plg-activation assay, 25 and 100 μg ml^−1 nOVA and dOVA were tested, respectively. TEM images of nOVA and dOVA were taken to check for the presence of large aggregates. […] MSA (#126674, Calbiochem) was dissolved in 8 M urea, 100 mM Tris-HCl pH 8.2, at 10 mg ml^−1 final concentration. Dithiothreitol (DTT) was added to a final concentration of 10 mM. Air was replaced by N2 and the solution was incubated for 2 h at room temperature. Then, the solution was transferred to ice and iodoacetamide was added from a 1 M stock to a final concentration of 20 mM. […] Alkyl-MSA was dialyzed against H2O before use. […] In the ThT-fluorescence assay 25 μg ml^−1 nMSA and alkyl-MSA were tested, and in the Plg-activation assay 100 μg ml^−1 was tested. The presence of aggregates or fibrils was analyzed using TEM. […]
as §1

Data set [3] is described as follows: Stability testing of biopharmaceuticals under denaturing conditions (ThT fluorescence, tPA activation). The following applies: ThT at 25 μg/mL, tPA activation at 100 μg/mL. The format is physicochemical. The procedure:
To mimic accelerated stability testing several therapeutics were exposed to denaturing conditions and assayed for amyloid-like properties before and after treatment by tPA activation assay at 100 μg/mL protein and ThT fluorescence enhancement assay at 25 μg/mL protein. For this purpose, 5 mg/mL Glucagon (Glucagen; Novo Nordisk Farma B.V., Alphen aan de Rijn, The Netherlands) was incubated at 37° C. in 0.01 M HCl for 48 hours. One mg/mL Etanercept (Enbrel; Wyeth Pharmaceuticals B.V., Hoofddorp, The Netherlands) in 67 mM sodium phosphate buffer, 100 mM NaCl pH 7.0 was gradually heated from 30° C. to 85° C. over a period of 12 minutes and afterwards cooled to 4° C. for 5 minutes, this treatment was repeated 4 times. Abciximab (Reopro; Centocor B.V., Leiden, The Netherlands) and Infliximab (Remicade; Schering-Plough B.V., Utrecht, The Netherlands) were incubated at 65° C. for 16 and 72 hours, respectively.

Data set [4] has as its target T1, tPA. Description: Plasminogen-activation assay (tPA-mediated Plg to Pls, S-2251). It is filed as biochemical. The conditions noted are these: FIG. 6E, G. The procedure: (§3) Plasmin (Pls) activity was assayed as described^7. Peptides and proteins that were tested for their stimulatory ability were regularly used at 100 μg ml^−1. […] Chromogenic substrate S-2251 (Chromogenix, Instrumentation Laboratory SpA, Milano, Italy) was used to measure Pls activity. Conversion of zymogen factor XII (#233490, Calbiochem, EMD Biosciences, Inc., San Diego, Calif.) to proteolytically active factor XII (factor XIIa) was assayed by measurement of the conversion of chromogenic substrate Chromozym-PK (Roche Diagnostics, Almere, The Netherlands) by kallikrein. Chromozym-PK was used at a concentration of 0.3 mM. Factor XII, human plasma prekallikrein (#529583, Calbiochem) and human plasma cofactor high-molecular weight kininogen (#422686, Calbiochem) were used at concentrations of 1 μg ml^−1. […] Assays were performed using microtiter plates (Costar, Cambridge, Mass., USA). Peptides and proteins were tested for their ability to activate factor XII. 150 μg ml^−1 kaolin, an established activator of factor XII was used as positive control and solvent (H2O) as negative control. The conversion of Chromozym-PK was recorded kinetically at 37° C. for at least 60 minutes. Assays were done in duplicate. […] Alternatively, chromogenic substrate S-2222 (Chromogenix) was used to follow the activity of factor XII itself. With S-2222, activation of factor XII in plasma was measured, using 60% v/v plasma, diluted with substrate and H2O with or without potential cofactor. Furthermore, auto-activation of factor XII was measured by incubating 53 μg ml^−1 purified factor XII in 50 mM Tris-HCl buffer pH 7.5 with 1 mM EDTA and 0.001% v/v Triton-X100, with S-2222 and H2O with or without potential cofactor.
as §2
Purification of β2-glycoprotein I (β2GPI) was performed according to established methods^11,12. Recombinant human β2GPI was made using insect cells and purified as described^11. Plasma derived β2GPI as used in a factor XII ELISA, the chromogenic Plg-activation assay and in the anti-phospholipid syndrome antibody ELISA (see below), was purified from fresh human plasma as described^12.
To prepare structurally altered ovalbumin (OVA) with amyloid cross-β structure conformation, purified OVA (Sigma, A-7641, lot 071k7094) was heated to 85° C. One mg ml^−1 OVA in 67 mM NaPi buffer pH 7.0, 100 mM NaCl, was heated for two cycles in PCR cups in a PTC-200 thermal cycler (MJ Research, Inc., Waltham, Mass., USA). In each cycle, OVA was heated from 30 to 85° C. at a rate of 5° C./min. Native OVA (nOVA) and heat-denatured OVA (dOVA) were tested in the ThT fluorescence assay and in the Plg-activation assay. In the fluorescence assay and in the Plg-activation assay, 25 and 100 μg ml^−1 nOVA and dOVA were tested, respectively. TEM images of nOVA and dOVA were taken to check for the presence of large aggregates. […] MSA (#126674, Calbiochem) was dissolved in 8 M urea, 100 mM Tris-HCl pH 8.2, at 10 mg ml^−1 final concentration.

Data set [5] in a line: Congo red fluorescence. The format is physicochemical. The procedure: Background signals from buffer, buffer with Congo red and protein/peptide solution without Congo red were subtracted from corresponding measurements with protein solution incubated with Congo red. Fluorescence was measured in triplicate on a Hitachi F-4500 fluorescence spectrophotometer (Ltd., Tokyo, Japan).
as §2, §1

The target in data set [6] is T1, tPA. In words: tPA ELISA with coated protein therapeutics. The conditions noted are these: 5 μg ml^−1 coated, stored at 4° C. It is filed as binding. The procedure:
as §2
In general terms: In an ELISA, binding on a coated surface is turned into a signal by an enzyme label.

In data set [7] the target is T2, factor XII (Homo sapiens, UniProt P00748).
T2 construct: purchased Calbiochem, EMD Biosciences #233490
T2 sequence (P00748 20-615): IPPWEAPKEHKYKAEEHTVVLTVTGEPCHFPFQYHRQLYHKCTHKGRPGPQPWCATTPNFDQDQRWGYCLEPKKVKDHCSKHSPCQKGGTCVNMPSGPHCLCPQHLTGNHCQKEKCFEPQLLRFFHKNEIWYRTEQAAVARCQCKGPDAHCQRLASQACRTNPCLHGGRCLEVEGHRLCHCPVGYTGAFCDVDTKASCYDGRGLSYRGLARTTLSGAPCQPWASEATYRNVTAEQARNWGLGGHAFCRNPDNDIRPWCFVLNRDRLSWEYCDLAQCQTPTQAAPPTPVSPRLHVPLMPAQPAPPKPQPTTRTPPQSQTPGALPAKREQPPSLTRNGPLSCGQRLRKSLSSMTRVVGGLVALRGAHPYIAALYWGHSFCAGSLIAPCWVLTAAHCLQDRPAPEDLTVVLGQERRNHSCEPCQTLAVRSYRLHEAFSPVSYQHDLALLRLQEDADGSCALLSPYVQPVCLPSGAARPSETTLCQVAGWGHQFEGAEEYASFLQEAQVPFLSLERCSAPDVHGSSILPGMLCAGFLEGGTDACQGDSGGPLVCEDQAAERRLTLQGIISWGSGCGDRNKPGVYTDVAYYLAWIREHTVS
Description: Chromogenic factor XII/prekallikrein activation assay (Chromozym-PK). It is filed as biochemical. The procedure: as §3, §2

T1 sequence (P00750 36-562): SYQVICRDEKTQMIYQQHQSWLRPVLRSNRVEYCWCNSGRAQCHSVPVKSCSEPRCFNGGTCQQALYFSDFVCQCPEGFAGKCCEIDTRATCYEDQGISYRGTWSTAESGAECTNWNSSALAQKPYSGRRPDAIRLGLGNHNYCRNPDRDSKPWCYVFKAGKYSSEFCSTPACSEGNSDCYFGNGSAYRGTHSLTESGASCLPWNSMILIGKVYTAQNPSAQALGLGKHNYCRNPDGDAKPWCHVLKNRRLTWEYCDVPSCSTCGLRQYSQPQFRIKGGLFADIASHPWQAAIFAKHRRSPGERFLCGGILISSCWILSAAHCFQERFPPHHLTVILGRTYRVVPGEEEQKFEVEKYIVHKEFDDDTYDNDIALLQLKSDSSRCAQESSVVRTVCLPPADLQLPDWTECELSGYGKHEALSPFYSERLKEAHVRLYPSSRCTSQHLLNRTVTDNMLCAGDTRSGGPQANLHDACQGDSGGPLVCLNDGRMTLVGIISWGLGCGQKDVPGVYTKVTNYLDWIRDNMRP

On to Etanercept, for which the “tPA activation Max. Activation (%)” value in data set [1] worked out at 0%. The “ThT fluorescence enhancement of native and denatured proteins” value in data set [2] (25 μg ml^−1) is “gave some ThT fluorescence enhancement”. The “Fluorescence (a.u. +/− SD) ThT” value in data set [2] is on record as 23 +/− 3 a.u. For the same substance, the “amyloid-like properties after exposure to harsh denaturing conditions (low pH, heat)” value (from here on “amyloid-like properties after exposure”) in data set [3] was “amyloid-like properties are adopted”. For the same substance, in data set [4], the “tPA activating potential of native and denatured glucagon and Etanercept” value is “induces some tPA activation”.
“Glucagon: human glucagon (Glucagen, Novo Nordisk)”: the “tPA activation Max. Activation (%)” value in data set [1] was 11.25%. The “Fluorescence (a.u. +/− SD) ThT” value in data set [2] is listed as 48 +/− 1 a.u. Moreover, the “amyloid-like properties after exposure” value in data set [3] is listed as “amyloid-like properties are adopted”. Besides, the “tPA activating potential of native and denatured glucagon and Etanercept” value in data set [4] is “has some tPA activating potential”.
As for “Infliximab: human-murine chimeric monoclonal antibody (Remicade-infliximab)”, the “tPA activation Max. Activation (%)” value in data set [1] turned out to be 0%. The “Fluorescence (a.u. +/− SD) ThT” value in data set [2] is 19 +/− 1 a.u. In data set [5] (marketed biopharmaceutical within expiry limits, five μL tested), the “Fluorescence (a.u. +/− SD) CR” value is reported as 67 +/− 2 a.u. Further, in data set [3], the “amyloid-like properties after exposure” value is reported as “amyloid-like properties are adopted”.
Take gelatin: in data set [6], the “binding of tPA to immobilized therapeutic” value is on record as “binding of tPA was established”. Moreover, the “Congo red fluorescence of gelatin” value in data set [5] (stored at 4° C. and 37° C.) is listed as “enhanced Congo red fluorescence in a storage temperature dependent manner”. Also, the “enhancement of Congo red fluorescence” value in data set [5] (therapeutics stored at 4° C.) was “enhanced the fluorescence of Congo red”. The “factor XII activation by gelatin” value in data set [7] (kept at 37° C.) is listed as “activated factor XII”. The “factor XII/prekallikrein activation by protein therapeutics” value in data set [7] (stored at 4° C.) is “not”.
